{
  "source": "the RNAGym collection of RNA variant scans (doi:10.1093/molbev/msab373)",
  "parents": {"B1": {"name": "Azoarcus group I ribozyme (parent)", "chain": "GUGCCUUGCGCCGGGAAACCACGCAAGGGAUGGUGUCAAAUUCGGCGAAACCUAAGCGCCCGCCCGGGCGUAUGGCAACGCCGAGCCAAGCUUCGGCGCCUGCGCCGAUGAAGGUGUAGAGACUAGACGGCACCCACCUAAGGCAAACGCUAUGGUGAAGGCAUAGUCCAGGGAGUGGCGAAAGUCACACAAACCGG"}},
  "data": [
    {"variants_of": "B1", "experiment": "reverse-splicing fitness (ratio to wild type); higher = more active; in vitro selection; Mg2+ level not given", "outline": "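An in vitro group I ribozyme library with randomized positions was T7-transcribed and gel-purified. In triplicate, 10 pmol RNA in EPPS pH 7.5 was reacted with 50 pmoles of a 30-nt RNA substrate for 1 h at 37 °C across several added MgCl2 levels (1–48 mM), then stopped with EDTA. Products were reverse transcribed from a substrate-complementary primer, PCR-amplified and sequenced (HiSeq 4000). Fitness is a variant's read proportion after selection over that before, normalised to wild type.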", "values": [
      {"variant": "GUGCCUUGCGCCGGGAAACCACGCAAGGGAUGGUGUCAAAUUCGGCGAAACCUAAGCGCCCGCCCGGGCGUAUGGCAACGCCGAGCCAAGCUUCGGCGCCUGCGCCGAUGUAGGUGUAGAGACUAGACGGCACCCACCUAAGGCGAACGUUAUGGUGAAGGCAUAGUCGAGGGAGUGGCGAAAGUCACACAAACCGG", "note": "[A111U A145G C150U C169G]", "reverse-splicing fitness": 0.0498},
      {"variant": "GUGCCUUGCGCCGGGAAACCACGCAAGGGAUGGUGUCAAAUUCGGCGAAACCUAAGCGCCCGCCCGGGCGUAUGGCAACGCCGAGCCAAGCUUCGGCGCCUGCGCCGAUGUAGGUGUAGAGACUAGACGGCACCCACCUAAGGCGAACGUUAUGGUGAAGGCAUAGUCAAGGGAGUGGCGAAAGUCACACAAACCGG", "note": "[A111U A145G C150U C169A]", "reverse-splicing fitness": 0.025},
      {"variant": "GUGCCUUGCGCCGGGAAACCACGCAAGGGAUGGUGUCAAAUUCGGCGAAACCUAAGCGCCCGCCCGGGCGUAUGGCAACGCCGAGCCAAGCUUCGGCGCCUGCGCCGAUGUAGGUGUAGAGACUAGACGGCACCCACCUAAGGCGAACGAUAUGGUGAAGGCAUAGUCUAGGGAGGGGCGAAAGUCACACAAACCGG", "note": "[A111U A145G C150A C169U U176G]", "reverse-splicing fitness": 0.00686},
      {"variant": "GUGCCUUGCGCCGGGAAACCACGCAAGGGAUGGUGUCAAAUUCGGCGAAACCUAAGCGCCCGCCCGGGCGUAUGGCAACGCCGAGCCAAGCUUCGGCGCCUGCGCCGAUGUAGGUGUAGAGACUAGACGGCACCCACCUAAGGCGAACGAUAUGGUGAAGGCAUAGUCUAGGGAGCGGCGAAAGUCACACAAACCGG", "note": "[A111U A145G C150A C169U U176C]", "reverse-splicing fitness": 0.0191},
      {"variant": "GUGCCUUGCGCCGGGAAACCACGCAAGGGAUGGUGUCAAAUUCGGCGAAACCUAAGCGCCCGCCCGGGCGUAUGGCAACGCCGAGCCAAGCUUCGGCGCCUGCGCCGAUGUAGGUGUAGAGACUAGACGGCACCCACCUAAGGCGAACGGUAUGGUGAAGGCAUAGUCCAGGGAGUGGCGAAAGUCACACAAACCGG", "note": "[A111U A145G C150G]", "reverse-splicing fitness": 0.359},
      {"variant": "GUGCCUUGCGCCGGGAAACCACGCAAGGGAUGGUGUCAAAUUCGGCGAAACCUAAGCGCCCGCCCGGGCGUAUGGCAACGCCGAGCCAAGCUUCGGCGCCUGCGCCGAUGUAGGUGUAGAGACUAGACGGCACCCACCUAAGGCGAACGUUAUGGUGAAGGCAUAGUCCAGGGAGUGGCGAAAGUCACACAAACCGG", "note": "[A111U A145G C150U]", "reverse-splicing fitness": 0.915},
      {"variant": "GUGCCUUGCGCCGGGAAACCACGCAAGGGAUGGUGUCAAAUUCGGCGAAACCUAAGCGCCCGCCCGGGCGUAUGGCAACGCCGAGCCAAGCUUCGGCGCCUGCGCCGAUGUAGGUGUAGAGACUAGACGGCACCCACCUAAGGCGAACGGUAUGGUGAAGGCAUAGUCGAGGGAGUGGCGAAAGUCACACAAACCGG", "note": "[A111U A145G C150G C169G]", "reverse-splicing fitness": 0.011},
      {"variant": "GUGCCUUGCGCCGGGAAACCACGCAAGGGAUGGUGUCAAAUUCGGCGAAACCUAAGCGCCCGCCCGGGCGUAUGGCAACGCCGAGCCAAGCUUCGGCGCCUGCGCCGAUGUAGGUGUAGAGACUAGACGGCACCCACCUAAGGCGAACGGUAUGGUGAAGGCAUAGUCUAGGGAGUGGCGAAAGUCACACAAACCGG", "note": "[A111U A145G C150G C169U]", "reverse-splicing fitness": 0.0181},
      {"variant": "GUGCCUUGCGCCGGGAAACCACGCAAGGGAUGGUGUCAAAUUCGGCGAAACCUAAGCGCCCGCCCGGGCGUAUGGCAACGCCGAGCCAAGCUUCGGCGCCUGCGCCGAUGUAGGUGUAGAGACUAGACGGCACCCACCUAAGGCGAACGGUAUGGUGAAGGCAUAGUCAAGGGAGUGGCGAAAGUCACACAAACCGG", "note": "[A111U A145G C150G C169A]", "reverse-splicing fitness": 0.0104},
      {"variant": "GUGCCUUGCGCCGGGAAACCACGCAAGGGAUGGUGUCAAAUUCGGCGAAACCUAAGCGCCCGCCCGGGCGUAUGGCAACGCCGAGCCAAGCUUCGGCGCCUGCGCCGAUGUAGGUGUAGAGACUAGACGGCACCCACCUAAGGCGAACGGUAUGGUGAAGGCAUAGUCGAGGGAGAGGCGAAAGUCACACAAACCGG", "note": "[A111U A145G C150G C169G U176A]", "reverse-splicing fitness": 0.00998},
      {"variant": "GUGCCUUGCGCCGGGAAACCACGCAAGGGAUGGUGUCAAAUUCGGCGAAACCUAAGCGCCCGCCCGGGCGUAUGGCAACGCCGAGCCAAGCUUCGGCGCCUGCGCCGAUGUAGGUGUAGAGACUAGACGGCACCCACCUAAGGCGAACGGUAUGGUGAAGGCAUAGUCGAGGGAGGGGCGAAAGUCACACAAACCGG", "note": "[A111U A145G C150G C169G U176G]", "reverse-splicing fitness": 0.00597},
      {"variant": "GUGCCUUGCGCCGGGAAACCACGCAAGGGAUGGUGUCAAAUUCGGCGAAACCUAAGCGCCCGCCCGGGCGUAUGGCAACGCCGAGCCAAGCUUCGGCGCCUGCGCCGAUGUAGGUGUAGAGACUAGACGGCACCCACCUAAGGCGAACGGUAUGGUGAAGGCAUAGUCGAGGGAGCGGCGAAAGUCACACAAACCGG", "note": "[A111U A145G C150G C169G U176C]", "reverse-splicing fitness": 0.0116},
      {"variant": "GUGCCUUGCGCCGGGAAACCACGCAAGGGAUGGUGUCAAAUUCGGCGAAACCUAAGCGCCCGCCCGGGCGUAUGGCAACGCCGAGCCAAGCUUCGGCGCCUGCGCCGAUGUAGGUGUAGAGACUAGACGGCACCCACCUAAGGCGAACGGUAUGGUGAAGGCAUAGUCUAGGGAGGGGCGAAAGUCACACAAACCGG", "note": "[A111U A145G C150G C169U U176G]", "reverse-splicing fitness": 0.0076},
      {"variant": "GUGCCUUGCGCCGGGAAACCACGCAAGGGAUGGUGUCAAAUUCGGCGAAACCUAAGCGCCCGCCCGGGCGUAUGGCAACGCCGAGCCAAGCUUCGGCGCCUGCGCCGAUGUAGGUGUAGAGACUAGACGGCACCCACCUAAGGCGAACGGUAUGGUGAAGGCAUAGUCUAGGGAGAGGCGAAAGUCACACAAACCGG", "note": "[A111U A145G C150G C169U U176A]", "reverse-splicing fitness": 0.0111},
      {"variant": "GUGCCUUGCGCCGGGAAACCACGCAAGGGAUGGUGUCAAAUUCGGCGAAACCUAAGCGCCCGCCCGGGCGUAUGGCAACGCCGAGCCAAGCUUCGGCGCCUGCGCCGAUGUAGGUGUAGAGACUAGACGGCACCCACCUAAGGCGAACGGUAUGGUGAAGGCAUAGUCUAGGGAGCGGCGAAAGUCACACAAACCGG", "note": "[A111U A145G C150G C169U U176C]", "reverse-splicing fitness": 0.0136}
    ]}
  ]
}
